Measurements taken from paper PMC8666670, “Malonyl-acyl carrier protein decarboxylase activity promotes fatty acid and cell envelope biosynthesis in Proteobacteria” (The Journal of Biological Chemistry, 2021).

Substrate: CC(=O)SCCNC(=O)CCNC(=O)[C@H](O)C(C)(C)COP(=O)(O)OP(=O)(O)OC[C@H]1O[C@@H](n2cnc3c(N)ncnc32)[C@H](O)[C@@H]1OP(=O)(O)O
Test: radiochemical TLC acetyltransferase assay, one-site Hill fit
Type: biochemical, Escherichia coli
Conditions: 500 μM glucosamine-1-phosphate, 20 mM MgCl2, 37 °C, labelled compound

B1: GlmU (Escherichia coli K-12) (protein)
chain: MLNNAMSVVILAAGKGTRMYSDLPKVLHTLAGKAMVQHVIDAANELGAAHVHLVYGHGGDLLKQALKDDNLNWVLQAEQLGTGHAMQQAAPFFADDEDILMLYGDVPLISVETLQRLRDAKPQGGIGLLTVKLDDPTGYGRITRENGKVTGIVEHKDATDEQRQIQEINTGILIANGADMKRWLAKLTNNNAQGEYYITDIIALAYQEGREIVAVHPQRLSEVEGVNNRLQLSRLERVYQSEQAEKLLLAGVMLRDPARFDLRGTLTHGRDVEIDTNVIIEGNVTLGHRVKIGTGCVIKNSVIGDDCEISPYTVVEDANLAAACTIGPFARLRPGAELLEGAHVGNFVEMKKARLGKGSKAGHLTYLGDAEIGDNVNIGAGTITCNYDGANKFKTIIGDDVFVGSDTQLVAPVTVGKGATIAAGTTVTRNVGENALAISRVPQTQKEGWRRPVKKK
notes: full-length in pET28a, His-tag kept; expressed in E. coli BL21(DE3)
  Km: 400 µM
